Assay [1] addresses recombinant human tumor necrosis factor alpha (rhTNF-α) (human). As to the kind of experiment: MST; labelled rhTNF-α (RED-NHS 2nd Generation) at 20 nM, peptide titrated in 16 serial dilutions, PBS, 20 min incubation in the dark, Monolith NT.115 Pico, medium MST power.
Assay [2] has the same target.
Assay [3] has the same target. This is another data set of the same source.

Where two headings read alike, the source gives them in different places.

Sequence of recombinant human tumor necrosis factor alpha (rhTNF-α) (human) (P01375 77-233): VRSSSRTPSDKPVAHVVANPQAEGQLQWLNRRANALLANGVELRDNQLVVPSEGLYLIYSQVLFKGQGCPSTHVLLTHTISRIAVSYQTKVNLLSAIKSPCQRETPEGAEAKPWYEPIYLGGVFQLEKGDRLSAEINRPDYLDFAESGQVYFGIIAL

Turning to KGGGSGGGSGGGSRKEMGQV [OB2 peptide], the Kd (in general, the equilibrium constant for the complex coming apart) in assay [1] was determined as 46.7 nM. Also, the neutralization of TNF-α-induced cytotoxicity on L929 cells (MTT, 1 ng/mL TNF-α with actinomycin D, peptide 1 pM to 10 μM); blocks TNF-α with TNFR1 in assay [2] came to 81 pM.

Regarding KGGGSGGGSHIHDDLLRYYGW [OB1 peptide], the Kd in assay [1] was found to be 300 nM. Also, in assay [2], the neutralization of TNF-α-induced cytotoxicity on L929 cells (MTT, 1 ng/mL TNF-α with actinomycin D, peptide 1 pM to 10 μM); blocks TNF-α with TNFR1 was 4.6 nM.

For the molecule KRWSRYFWVDMTGTR [OB8 peptide], the dissociation constant Kd in assay [1] came out at 3890 nM. For the same molecule, the neutralization of TNF-α-induced cytotoxicity on L929 cells (MTT, 1 ng/mL TNF-α with actinomycin D, peptide 1 pM to 10 μM); blocks TNF-α with TNFR1 in assay [3] is 7.5 µM.

(Values after article PMC12024540, “Peptide-Based Regulation of TNF-α-Mediated Cytotoxicity” (Biomolecules, 2025).)
